For this assay, the target named is HA-tagged Patched 1 (Ptc1), expressed in 293T cells (UniProt Q61115). The assay is described as follows: pull-down.

One may read the Kd as the equilibrium constant for the complex coming apart. The low end stands for a tighter complex, the high end for a looser complex.

Sequence of UniProt Q61115 (Q61115 whole entry): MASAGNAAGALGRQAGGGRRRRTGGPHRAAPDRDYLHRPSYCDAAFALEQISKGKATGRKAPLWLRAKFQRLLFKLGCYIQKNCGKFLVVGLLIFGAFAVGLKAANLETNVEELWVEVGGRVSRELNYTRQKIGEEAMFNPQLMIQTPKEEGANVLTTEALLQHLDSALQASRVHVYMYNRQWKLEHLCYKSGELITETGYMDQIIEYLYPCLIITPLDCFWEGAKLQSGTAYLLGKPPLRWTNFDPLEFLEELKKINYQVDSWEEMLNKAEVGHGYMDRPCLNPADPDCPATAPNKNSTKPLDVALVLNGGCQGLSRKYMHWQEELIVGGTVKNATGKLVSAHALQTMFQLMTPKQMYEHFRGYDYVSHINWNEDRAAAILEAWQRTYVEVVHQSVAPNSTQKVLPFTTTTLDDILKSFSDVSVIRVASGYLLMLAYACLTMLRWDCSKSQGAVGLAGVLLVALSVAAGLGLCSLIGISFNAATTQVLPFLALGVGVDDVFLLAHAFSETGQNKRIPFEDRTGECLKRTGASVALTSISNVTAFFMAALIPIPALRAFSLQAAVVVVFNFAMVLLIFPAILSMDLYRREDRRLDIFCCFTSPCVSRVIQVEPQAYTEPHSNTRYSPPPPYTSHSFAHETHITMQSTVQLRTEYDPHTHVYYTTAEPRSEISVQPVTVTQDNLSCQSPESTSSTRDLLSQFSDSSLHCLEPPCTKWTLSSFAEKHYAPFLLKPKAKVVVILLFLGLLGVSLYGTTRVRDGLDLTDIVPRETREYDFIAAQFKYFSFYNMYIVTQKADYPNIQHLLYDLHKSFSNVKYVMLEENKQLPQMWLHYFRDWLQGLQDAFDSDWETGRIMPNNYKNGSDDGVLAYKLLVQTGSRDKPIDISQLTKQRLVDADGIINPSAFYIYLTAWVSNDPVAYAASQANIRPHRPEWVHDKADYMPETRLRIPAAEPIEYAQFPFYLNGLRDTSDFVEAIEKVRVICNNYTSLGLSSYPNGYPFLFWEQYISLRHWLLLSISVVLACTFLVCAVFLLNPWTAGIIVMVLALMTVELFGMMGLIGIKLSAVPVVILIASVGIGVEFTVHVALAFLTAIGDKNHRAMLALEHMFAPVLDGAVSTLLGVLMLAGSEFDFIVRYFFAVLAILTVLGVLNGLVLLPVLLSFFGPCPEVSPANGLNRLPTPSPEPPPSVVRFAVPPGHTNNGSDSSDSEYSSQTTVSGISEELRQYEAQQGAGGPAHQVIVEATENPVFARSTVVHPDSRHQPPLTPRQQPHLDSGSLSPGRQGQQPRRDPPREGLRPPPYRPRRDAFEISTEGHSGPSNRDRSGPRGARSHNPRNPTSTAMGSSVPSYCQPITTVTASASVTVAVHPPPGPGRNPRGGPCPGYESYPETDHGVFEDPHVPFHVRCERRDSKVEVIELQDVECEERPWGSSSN

“GPC5-AP fusion protein in conditioned medium” returned a Kd of 37 nM.

(Values after publication PMC3044117.)
